{"source": "patent US5985836A", "about": "“Alpha-1 proteinase inhibitor binding peptides” (Bayer Corporation, priority 1998, dated 1999)", "key": {"A1PI [1]": {"target": "T1, A1PI (Homo sapiens, UniProt P01009)", "T1 construct": "Human plasma is currently the only approved source of therapeutic AlPI", "T1 sequence (P01009 25-418)": "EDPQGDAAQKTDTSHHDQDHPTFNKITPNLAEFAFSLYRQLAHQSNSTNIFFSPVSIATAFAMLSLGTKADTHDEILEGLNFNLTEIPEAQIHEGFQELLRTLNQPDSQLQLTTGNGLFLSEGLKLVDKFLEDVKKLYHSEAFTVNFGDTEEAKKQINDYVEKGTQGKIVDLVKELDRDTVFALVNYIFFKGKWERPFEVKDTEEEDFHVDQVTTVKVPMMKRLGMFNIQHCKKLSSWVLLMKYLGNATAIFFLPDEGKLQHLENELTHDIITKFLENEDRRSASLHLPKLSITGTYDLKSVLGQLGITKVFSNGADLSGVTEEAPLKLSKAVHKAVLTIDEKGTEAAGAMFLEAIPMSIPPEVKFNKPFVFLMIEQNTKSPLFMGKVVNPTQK", "test": "A1PI yield from dialyzed (aqueous) Effluent II+III", "assay_type": "binding", "settings": "4° C.", "method": "Effluent II+III was dialyzed against equilibration buffer at 4° C. to remove the ethanol using a 15,000 molecular weight cut-off membrane. Nephelometry of the Eff. […] A portion of the identified sequences were assayed under the same conditions applied for neat Eff. II+III at 4° C. […] II+III compared to the neat, ethanol-containing feed. The binding strength differed for the aqueous feed as more AlPI eluted in 1M NaCl for the aqueous feed. The AlPI eluted in the 1M NaCl fractions was not as enriched as that eluted in the acid eluates."}, "A1PI [2]": {"target": "T1, A1PI", "test": "A1PI purification from 5 mg hSA + 1 mg A1PI on peptide column, A1PI mass balance", "assay_type": "binding", "settings": "Table 10, A1PI, 5 mg hSA + 1 mg A1PI; for Mass Protein per Eluate Fraction, 1M NaCl / Mass Protein per Eluate Fraction, 2% Acetic Acid / Mass Protein per Eluate Fraction, Flow: * Below detection limit; for Percent Eluted by Fraction, 1M NaCl / Percent Eluted by Fraction, 2% Acetic Acid / Percent Eluted by Fraction, 3M NaCl / Percent Eluted by Fraction, Flow: relative to total loaded", "method": "Confirmatory binding assays were performed in a column chromatographic format on a microbore HPLC using individual peptide sequences synthesized directly onto the Toyopearl 650 M Chelate resin which had been modified with Totda followed by an alanine residue (A-Totda-Toyopearl), at a final substitution density of 0.1 mmole/g resin. The resin was packed into 0.4×5 cm columns (Thomson, Springfield, Va.) and tested on the Michrom HPLC system (Michrom BioResources, Auburn, Calif.). The elution program for all trials utilized the following method. The column was pre-equilibrated with equilibration buffer (as above). 1 ml of sample was injected and allowed sufficient time to flowthrough the column using equilibration buffer. The column was then washed with step elutions of 1M NaCl and 3M NaCl in equilibration buffer. The column was exposed to equilibration buffer with 0.1M NaCl. Any remaining protein was eluted with elution buffer (2% by volume glacial acetic acid in water).\nA Gilson FC204 fraction collector at the HPLC outlet collected individual eluates for further analysis. Fractions collected from the 2% acetic acid eluates were neutralized with 2M Tris, pH 10.5 to bring the pH to neutrality. The protein samples were reconstituted in equilibration buffer unless otherwise stated. The samples were analyzed by the integration of the absorbance at 280 nm or by immunonephelometry. The specific method of determination is presented for each figure.\nColumns were assayed with a mixture of 5 mg human serum albumin (hSA)+1 mg AlPI at 4° C. (Table 4, Seq. ID 1-11, 15, 17) and 20° C. (Table 5, Seq. ID 1-10, 13, 15, 17). The chromatography method was modified to provide for a 10 minute residence time of sample in the column by decreasing the flow to 17 μl/min (10 cm/hr) upon injection. Following the incubation, the flow was set at 865 μl/min (413 cm/hr) for the step elutions of 1M NaCl, 3M NaCl, and 2% acetic acid. The mass balances presented are based upon immunonephelometry. The Percent Eluted value is protein-specific and based on the amount of the protein eluted in a […]"}, "A1PI [3]": {"target": "T1, A1PI", "test": "A1PI binding on peptide-resin column, injection of 1 mg A1PI in equilibration buffer", "settings": "Trp position mutations, 1 mg A1PI", "how_it_was_run": "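Peptides synthesized on A-Totda-Toyopearl chelate resin (0.1 mmole/g) packed in 0.4×5 cm columns; 1 mg A1PI injected in equilibration buffer at 4 °C or 20 °C, 865 or 523 μl/min. Flowthrough, 1M/3M NaCl washes and 2% acetic acid eluate quantified by A280 or immunonephelometry as percent of total eluted.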"}, "A1PI [4]": {"target": "T1, A1PI", "test": "Purification of A1PI from Effluent II+III on peptide column, A1PI mass balance", "assay_type": "binding", "settings": "Table 11, 1 ml Eff. II+III, 4° C.", "how_it_was_run": "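Run at 4° C: Effluent II+III (1 ml, 20% ethanol) loaded with a 10 min residence. Elution at 865 μl/min, in sequence 1M NaCl, 3M NaCl, 2% acetic acid; A1PI, IgA, IgG and haptoglobin accounted for in each fraction.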"}, "[5]": {"settings": "1 ml dialyzed Eff. II+III (ethanol removed)"}, "[6]": {"settings": "A1PI, 1 ml dialyzed Eff. II+III"}}}
{"substance": "VIYLVR: VIWLVR with Trp at position 3 replaced by Tyr", "values": [{"measurement": "Mass A1PI per Eluate Fraction, 1M NaCl", "setting": "A1PI [1]; [5]", "result": 0.12, "unit": "mg"}, {"measurement": "Mass A1PI per Eluate Fraction, 2% Acetic Acid", "setting": "A1PI [1]; [5]", "result": 0.16, "unit": "mg"}, {"measurement": "Mass A1PI per Eluate Fraction, Flowthrough", "setting": "A1PI [1]; [5]", "result": 0.46, "unit": "mg"}, {"measurement": "Percent Eluted by Fraction, 1M NaCl", "setting": "A1PI [1]; [6]", "result": 16, "unit": "%"}, {"measurement": "Percent Eluted by Fraction, 2% Acetic Acid", "setting": "A1PI [1]; [6]", "result": 22, "unit": "%"}, {"measurement": "Percent Eluted by Fraction, Flowthrough", "setting": "A1PI [1]; [6]", "result": 62, "unit": "%"}, {"measurement": "Mass Protein per Eluate Fraction, 1M NaCl", "setting": "A1PI [2]; 4° C.", "result": 0.12, "unit": "mg"}, {"measurement": "Mass Protein per Eluate Fraction, 2% Acetic Acid", "setting": "A1PI [2]; 4° C.", "result": 0.75, "unit": "mg"}, {"measurement": "Mass Protein per Eluate Fraction, Flow", "setting": "A1PI [2]; 4° C.", "result": 0.12, "unit": "mg"}, {"measurement": "Percent Eluted by Fraction, 1M NaCl", "setting": "A1PI [2]; 4° C.", "result": 12, "unit": "%"}, {"measurement": "Percent Eluted by Fraction, 2% Acetic Acid", "setting": "A1PI [2]; 4° C.", "result": 76, "unit": "%"}, {"measurement": "Percent Eluted by Fraction, 3M NaCl", "setting": "A1PI [2]; 4° C.", "result": 0, "unit": "%"}, {"measurement": "Percent Eluted by Fraction, Flow", "setting": "A1PI [2]; 4° C.", "result": 12, "unit": "%"}, {"measurement": "Mass Protein per Eluate Fraction, 1M NaCl", "setting": "A1PI [2]; 20° C.", "result": 0.07, "unit": "mg"}, {"measurement": "Mass Protein per Eluate Fraction, 2% Acetic Acid", "setting": "A1PI [2]; 20° C.", "result": 0.48, "unit": "mg"}, {"measurement": "Mass Protein per Eluate Fraction, Flow", "setting": "A1PI [2]; 20° C.", "result": 0.13, "unit": "mg"}, {"measurement": "Percent Eluted by Fraction, 1M NaCl", "setting": "A1PI [2]; 20° C.", "result": 11, "unit": "%"}, {"measurement": "Percent Eluted by Fraction, 2% Acetic Acid", "setting": "A1PI [2]; 20° C.", "result": 70, "unit": "%"}, {"measurement": "Percent Eluted by Fraction, 3M NaCl", "setting": "A1PI [2]; 20° C.", "result": 0, "unit": "%"}, {"measurement": "Percent Eluted by Fraction, Flow", "setting": "A1PI [2]; 20° C.", "result": 19, "unit": "%"}, {"measurement": "% of Total A1PI Eluted by Fraction (Based on Absorbance at 280 nm), 1M NaCl", "setting": "A1PI [3]; 4° C.", "result": 28, "unit": "%"}, {"measurement": "% of Total A1PI Eluted by Fraction (Based on Absorbance at 280 nm), 2% Acetic Acid", "setting": "A1PI [3]; 4° C.", "result": 72, "unit": "%"}, {"measurement": "% of Total A1PI Eluted by Fraction (Based on Absorbance at 280 nm), Flowthrough", "setting": "A1PI [3]; 4° C.", "result": 0, "unit": "%"}, {"measurement": "% of Total A1PI Eluted by Fraction (Based on Absorbance at 280 nm), 1M NaCl", "setting": "A1PI [3]; 20° C.", "result": 15, "unit": "%"}, {"measurement": "% of Total A1PI Eluted by Fraction (Based on Absorbance at 280 nm), 2% Acetic Acid", "setting": "A1PI [3]; 20° C.", "result": 85, "unit": "%"}, {"measurement": "% of Total A1PI Eluted by Fraction (Based on Absorbance at 280 nm), Flowthrough", "setting": "A1PI [3]; 20° C.", "result": 0, "unit": "%"}, {"measurement": "Mass A1PI per Eluate Fraction, 1M NaCl", "setting": "A1PI [4]; * Below detection limit", "result": 0.05, "unit": "mg"}, {"measurement": "Mass A1PI per Eluate Fraction, 2% Acetic Acid", "setting": "A1PI [4]; * Below detection limit", "result": 0.57, "unit": "mg"}, {"measurement": "Mass A1PI per Eluate Fraction, Flowthrough", "setting": "A1PI [4]; * Below detection limit", "result": 0.22, "unit": "mg"}, {"measurement": "Percent Eluted by Fraction, 1M NaCl", "setting": "A1PI [4]; A1PI", "result": 6, "unit": "%"}, {"measurement": "Percent Eluted by Fraction, 2% Acetic Acid", "setting": "A1PI [4]; A1PI", "result": 68, "unit": "%"}, {"measurement": "Percent Eluted by Fraction, Flowthrough", "setting": "A1PI [4]; A1PI", "result": 27, "unit": "%"}]}
